# In the domain aggregation screens of Martell et al. (2025):
# Test: soluble fraction after stress (log2 fold change); higher = more stays soluble; pooled small domains, quantitative proteomics
# Conditions: stress: 75 degC
# 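Also: 20 min heating vs room temperature control held 20 min.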
row,Sequence,soluble fraction (log2)
1,HMGLAALLQSGPVAGTVLSHQPGGKVVIAFQGQAYPLNLKGRTLQPGQSVLARMAGEQISLEVI,-1.14
2,HMGLDERNLKLFAASLLEQAGKKITESTMTYLLDKTGSDMENIQNEVEKIIGYTMNHTVVTTEDIDAV,0.0873
3,HMGLDPVFKKWVDDNPWYTENRVLRALTHDYAEELKQTNPQLVGVEFLDQVKKRVQADHPEFFQ,0.0133
4,HMGLGDLEVVDSIGKIRRDGQQMILAFGRHKGRDVQEVYNEDPRYINWLLSPKGIEDENGRGKVRDYLGIN,0.0837
5,HMGLKQADFEELASRIFTVLEEKSMTPAEIVRKLNLEPDRISIVIQYLLDEGKLNIKDGFINNSA,-0.29
6,HMGLLGIYPNPVEGGSVRLLSDADLFGSRFELYDQSGKLVLNGFVTEGNFVSVKGISSGLYISVSYT,0.245
7,HMGLLGTDISAETMIGYFKKIDLGFDEETQEVIVPSWRQDLLRDADIAEEVARFYGYDNIPTTLPSGEST,0.0485
8,HMGLNLIGLKRSGFAPEEVKAMTRAYMYIFKSAEGNFESRLAKAHEKYKDDALIMEMVEFIDDALKG,-1.09
9,HMGLQEADKQDRIARMKELISFLNEAAKAYYQEGREIVSNLEYDKAYDALLSLEKESGVVLSGSPSQNVG,0.321
10,HMGLRERLLNYIAYKGIDKATLERKSGLSNDAVNKMGDNTRVSTLDKISNAFPDINIAWLKTGVGEMILG,-0.306
11,HMGLSAALKARLREVINEMAKSGAQPKLREWALAEGIGNFAKPETPEAAEAVIAKAQELLAEA,0.543
12,HMGLSASVIQMFADLGYTSEGRSTKEMITDYQIDHSIIKNSTEDGAGTYGPRTKASLSTVHAQYI,-0.0653
13,HMGLSENALAMLKQQETVLIRLIDGRGNQGALASINLIVSRILNLDIVDRTPEDLLRVIASEGEQND,-3.81
14,HMGMIRFSKEEQMLMMLYSPGSRLGLIAELESMKLQLNSRERKLRNLAESVLKKLEQITDEEFMQFDF,-2.19
15,HMGMNSGQADFRGISLALSVDAEAEAQRLFTALADGGQVQMPLSKTFFSPAFGMVADRFGVGWMVVTN,0.238
16,HMGMSENIDKVAGGIPYKVEGNKAIINEPLDDATKERLMGKAKEHGYHAAPNQAGGITITLK,-0.0517
17,HMGMSKQKQSSLVRIIMQEISDANEGRMKMSQIIDAALIKGISDSTVRSVISRLSTTGAIYEPQTGTYEW,-0.649
18,HMGNEEEEAIREAEEAIERVLEYGEPQELNPQNGFIRRLQHQLAEKSHLSSESVGVEPYRRVRISK,0.193
19,HMGNFFDSAILALKNAIQENYGGNVSQAARSLGISVPTLHTWIKGDRKPSLEKLSPILDALNAKIVL,-1.06
20,HMGNFGDLLKILLDEKELSMGELSKKSGIDKSTISRIANNKQKPNINHLEKMAIHLNINLEELLKASGYEF,-0.666
21,HMGNFQNIFRKLRTSSNLTQNAIAEKLGISRSTIGMYETGAREPDFETLEKIADYFNVDTDFLLGRTNQTT,-0.315
22,HMGNKDAQLVHLAKMNEIQIELMKTGRGYMVTDQNVYNLAKKMGENMGFKHPDLFLTDPAKV,-0.0897
23,HMGNKDIEILFSEIVEMRNRIIHGFRITSKQGEQILATKTRKKDGNIQFEITKEYLLDFIKKNEELSDMLY,-2.46

row,Sequence,soluble fraction (log2)
1,HMGNKWALLVVFILNENGSTRFNQLARQIPDISTKVLSNTLQILEADGLVKRTVFPEVPIRVEYELTATGK,-3.92
2,HMGNLIIFYDEGIGSGPLMKAVNDSGVSLVYEYKNLHGIAIRPSAKTNIQDAIAYFQKVNGVLSVEQ,-2.92
3,HMGNNKLVLSLAVALKNTPNFLKNYNYKISKDKKFIEILLSKQINEVSDIIINLKKNNINIVDLNIKKR,-1.85
4,HMGNNTEITYSEFIRQAEAGNVQYVTVDGEKLLISATDGKSYYTINPRDDQMTDRLLNSGVEIRAEPQ,0.021
5,HMGNRQEQVRIIRDLWRQLADAGQPVPAKHLTLDLDALDATQLTKLEDQAHGWLAKLSAQADLADAA,-0.0412
6,HMGNTMIVILKHEARQEQIDRLKQFLLGMGLRIDESKGENSTILGLVGDTTRVDADLISSLDAVEAVRRV,-0.891
7,HMGNWENVEKETTEAIMAVKNGEAVWVDLAPANRMIRQMQHELVEQYGLLSQSYGKEPKRRIRIFQNP,-0.462
8,HMGPDALSIGRRVRQVRTARGMTLDELAAAVSRAPSQLSMIETGKREPKLSLLQAIARALGTTIDALLT,-0.856
9,HMGPDGLFAKFREPETGKDLLITQNVFVEQVLIKGVLTRTLTDAEANTYRAPFVNPEKRFPIYVWPNELP,0.014
10,HMGPEAFPVPYIVDIELDRAIYVIEQSGFIVGQKLEANDDNVPRGFVISQNPAAGTKLGPNSVVDLVISSG,-1.18
11,HMGPEQLIGKTGIAASELAPRGEVKIEGQIWRAETVGDHVKQGEPVEVVSREGLILRVKPKHPQTRG,0.0258
12,HMGPEVQLAYSEFLAKVKVGEVNDVMVKGNEIHGHFSDGRTFSTYSPNDPDLVEKLNKNKVMIKAAPP,0.00889
13,HMGPFYFDQDGKAYSGLLNRNGEILYFADPFNAAVKNTTKTIDGKTYTFNQNGRATSIDGIPLEPP,0.0904
14,HMGPGDTTIPTTIIGMSLEEARNELSAAGLLVARIIPVDSNSRTGTVLKITPDAGSIIKAGSGVELEIAS,-0.101
15,HMGPGFVGGSVLSGGNRGEGDPVANAQVFITDMDDNVVAFTKTDAEGNFDMTNLAYGDYKMYVDILNK,0.126
16,HMGPGSYVVNVKPYAYVSINGRDYGRTPVGPIRLDPGTYKVVFTHEHRPSFSRTIVVEAGRETFETFPYPG,-2.06
17,HMGPLPIDSRYFNNLVPYTGITHVNSVIPEAERHIGLTVVVKTGSTYSEYWYRTGVTNSSLELKT,-1.41
18,HMGPLYARVKAIVLARIMGGDWPPGTALPAEMELARALGVSQGTVRKALDALTAEQVVVRRQGSGTYVAE,-1.75
19,HMGPNYYDILEIPTDASPSEITQAFRKKALEWHPDKNPNNLEEATSRFIEIVEAYRVLSSKDSKLQYDTG,-0.213
20,HMGPSVGMTVGEMERDLIFRTLETVGDNRTKAADMLGISIRTLRNKLNEYREAGFEWPRKAG,-0.223
21,HMGQAVTMLKAGRLLANAKGTGAPVRSLEPGMLLYPTGVKEGTMWEVEDEMGNKGWVNSTLMETA,-0.6
22,HMGQAVTVPELKGLSFDEAIEKLDDAGLKYEVVDSNYVEDMKPGTVFETLPEAGSRVKPRRIVFLTINAF,-0.257
23,HMGQDTTIVVRRGESLLGIAARLLPATDFYTTGELAEGIRTASGMENDRLIPGQTLRVPLNSG,-0.24

row,Sequence,soluble fraction (log2)
1,HMGQGEISVPRLEGLSLRETSELLGLFGLRLEAAGSGIALSQNPPAGARVKAGDVIQVDFGEPGN,0.0756
2,HMGQHSAELKLHPQDLGQVTISMKVEDNQAQLQMVSGHGHVRAALEAALPQLRSQLADSGIQLTQSSIS,-0.198
3,HMGQISDEETLKTVASRIIDANPDEARKYRSGKTGLLGFFVGQVMKATQGEANPKLASRIVKELLE,-0.15
4,HMGQLIVTIPNFERRPAEQAIQKLEELGLVPEEKQIYHDDIPAGSVIYTDPSKDSQVNAGTKVYVYVSLG,-0.311
5,HMGQMGHAVVAKTDLAVGTPLTRDLVAVREVPVEWLHSSAITPEQFERAAGAVLAQPARGGEPLVWSQLEE,0.111
6,HMGQPRPLTAEDFDFLSDDEIAEMRKALSNGEMLRLRELIAQIGEKRPFLAERLLVLAKQYNYEDLSRLLE,-0.472
7,HMGQQPPVTEIYKNHDGNKDGLLEAGEVTGSRYARQFPRWDVNGDQKVSPQEVIAFRKRFGIAADGTLL,0.0193
8,HMGQQTVEPLSRRELEVLSLLAKGLSNQQIADRLVISVRTVKKHVENIHGKLGVQSRTQAVARARELGLV,-1.24
9,HMGQTYTITINPTPADAKVIIDGVATNSVEAIDGRTLIWSVSKPGYLTKSGNYTVTGKNETLNIVLKEDPD,0.163
10,HMGQVLEGVFRRKANGKNAFIPDGGGEPILVAERNSAHAMDGDRVKATLLARRKHHVREAQVTEILKRSSK,-0.258
11,HMGQVSDENQLNKVIDEVIKNYPIQVEQFKAGKEPILQFLKGMVMKATEGSADPAVAEKLLRKKL,0.0979
12,HMGQYLDAATVAAVYHAYHARNWTQATLAKELKVARPTLSNVLNGREAPSVELAARIRAFLGSPEP,-3.16
13,HMGRAAEETETFRTQGELDARIKELQGQMRDAAANLEFERAAGLRDTLKRLRTRGLGLSASP,0.0633
14,HMGRENGTVKWFNTSKGFGFITRDDGGDVFVHFRSIQGEGHRALQEGQRVSYVVANRDKGLQAEDVTILN,-0.277
15,HMGRKRLADYGLNDTEQKIVRKIADGLSNREIAQALYLSEGTVKNYITDILGKLELRDRTQIAIFYLREIG,-0.941
16,HMGRLTTKIVLYDRIENIVPERRKELVADIEKRIGVKVEVLEIGHVDFVRDAAWLKVSYYLAPGE,-2.21
17,HMGRNSTPKEPLKKFEVSPITEKEVRILDGRFGPYITDGATNVTVPKTITIEEITFERALDMLAEKAAKGP,0.0521
18,HMGRPQISDELRNAIIEVAKDNRDWGYIRIQGQLKYLGYRVSTATIGKVLKKAGLEPQPDRRRK,-1.92
19,HMGRPWRIGDVVNVSRPTGDGGGFTKGLITRIYPTTVQVTWNPDLQHARPWTTMEKKQYLIFVYHDDE,-3.09
20,HMGRQTITLPDFSGQDLEQVKARLTEWGLVPEEKSVFSDSVPLGSVVRTVPAEGDEVSVGDTVTVYKSLGR,0.19
21,HMGRRDLSWQPAAGGVSIDGLKAGEAWTLFGLNGRILKQGYAPEGQMSLAVNAGLFVLRGAESGVIRIAVA,-1.38
22,HMGRSYTIKSGDTLWAIATRYYGNGAQYSKIYNANKGTIESVAKSRGFRSSQNGHWIFPGTSITI,-0.722
23,HMGRTITVGIAEDADIKDIAKMLEEKGLISDYRLFVVQELLSAQHDKIKPGIYDLSTDMKAEEMLEILAG,-0.248
